From the supplement of paper PMC5998384

Assays:
HeLa Kyoto [1] = test: solubility change mitosis vs G1/S (difference of NP-40 vs SDS log2 ratios) (log2 ratio difference); higher = more soluble in mitosis
HeLa Kyoto [2] = test: melting temperature (median over replicates), in situ; higher = more thermally stable
HeLa Kyoto [3] = test: solubility in G1/S (NP-40 vs SDS abundance) (log2 ratio); higher = more soluble; settings: cell cycle stage: G1/S
HeLa Kyoto [4] = test: thermal stability score vs G1/S (z-score of summed log2 fold changes over temperatures); higher = more thermally stable than in G1/S
[5] = cell cycle stage: early G1 (4.5 h after nocodazole release)
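Wherever melting temperature (median over replicates), in situ is given: HeLa Kyoto cells synchronized by double thymidine or nocodazole block, proteins quantified by TMT10plex mass spectrometry, three independent biological replicates.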
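Wherever solubility change mitosis vs G1/S (difference of NP-40 vs SDS log2 ratios) is given: synchronized HeLa Kyoto cells (double thymidine block for G1/S, nocodazole release for mitosis), protein amounts in NP-40 versus SDS lysates quantified by mass spectrometry, three biological replicates.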
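Wherever solubility in G1/S (NP-40 vs SDS abundance) is given: HeLa Kyoto cells arrested at G1/S by double thymidine block, proteins quantified by TMT10plex mass spectrometry in mild NP-40 versus SDS extracts, three biological replicates.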
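Wherever thermal stability score vs G1/S (z-score of summed log2 fold changes over temperatures) is given: synchronized HeLa Kyoto cells, proteins quantified by TMT10plex mass spectrometry, three biological replicates, mitosis taken 0.5 h after nocodazole release, G1/S directly after double thymidine block.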

Substance | solubility change mitosis (log2) (HeLa Kyoto [1]) | melting temperature (HeLa Kyoto [2]; cell cycle stage: G1/S) [°C] | melting temperature (HeLa Kyoto [2]; cell cycle stage: mitosis) [°C] | solubility in G1/S (log2) (HeLa Kyoto [3]) | thermal stability score (HeLa Kyoto [4]; [5]) | thermal stability score (HeLa Kyoto [4]; cell cycle stage: mitosis)
MKVHMHTKFCLICLLTFIFHHCNHCHEEHDHGPEALHRQHRGMTELEPSKFSKQAAENEKKYYIEKLFERYGENGRLSFFGLEKLLTNLGLGERKVVEINHEDLGHDHVSHLDILAVQEGKHFHSHNHQHSHNHLNSENQTVTSVSTKRNHKCDPEKETVEVSVKSDDKHMHDHNHRLRHHHRLHHHLDHNNTHHFHNDSITPSERGEPSNEPSTETNKTQEQSDVKLPKGKRKKKGRKSNENSEVITPGFPPNHDQGEQYEHNRVHKPDRVHNPGHSHVHLPERNGHDPGRGHQDLDPDNEGELRHTRKREAPHVKNNAIISLRKDLNEDDHHHECLNVTQLLKYYGHGANSPISTDLFTYLCPALLYQIDSRLCIEHFDKLLVEDINKDKNLVPEDEANIGASAWICGIISITVISLLSLLGVILVPIINQGCFKFLLTFLVALAVGTMSGDALLHLLPHSQGGHDHSHQHAHGHGHSHGHESNKFLEEYDAVLKGLVALGGIYLLFIIEHCIRMFKHYKQQRGKQKWFMKQNTEESTIGRKLSDHKLNNTPDSDWLQLKPLAGTDDSVVSEDRLNETELTDLEGQQESPPKNYLCIEEEKIIDHSHSDGLHTIHEHDLHAAAHNHHGENKTVLRKHNHQWHHKHSHHSHGPCHSGSDLKETGIANIAWMVIMGDGIHNFSDGLAIGAAFSAGLTGGISTSIAVFCHELPHELGDFAVLLKAGMTVKQAIVYNLLSAMMAYIGMLIGTAVGQYANNITLWIFAVTAGMFLYVALVDMLPEMLHGDGDNEEHGFCPVGQFILQNLGLLFGFAIMLVIALYEDKIVFDIQF [SLC39A10] | -0.0208 | 59.3 | 59 | -0.0606 | -2.73 | -0.381
MRLGSGTFATCCVAIEVLGIAVFLRGFFPAPVRSSARAEHGAEPPAPEPSAGASSNWTTLPPPLFSKVVIVLIDALRDDFVFGSKGVKFMPYTTYLVEKGASHSFVAEAKPPTVTMPRIKALMTGSLPGFVDVIRNLNSPALLEDSVIRQAKAAGKRIVFYGDETWVKLFPKHFVEYDGTTSFFVSDYTEVDNNVTRHLDKVLKRGDWDILILHYLGLDHIGHISGPNSPLIGQKLSEMDSVLMKIHTSLQSKERETPLPNLLVLCGDHGMSETGSHGASSTEEVNTPLILISSAFERKPGDIRHPKHVQQTDVAATLAIALGLPIPKDSVGSLLFPVVEGRPMREQLRFLHLNTVQLSKLLQENVPSYEKDPGFEQFKMSERLHGNWIRLYLEEKHSEVLFNLGSKVLRQYLDALKTLSLSLSAQVAQYDIYSMMVGTVVVLEVLTLLLLSVPQALRRKAELEVPLSSPGFSLLFYLVILVLSAVHVIVCTSAESSCYFCGLSWLAAGGVMVLASALLCVIVSVLTNVLVGGNTPRKNPMHPSSRWSELDLLILLGTAGHVLSLGASSFVEEEHQTWYFLVNTLCLALSQETYRNYFLGDDGEPPCGLCVEQGHDGATAAWQDGPGCDVLERDKGHGSPSTSEVLRGREKWMVLASPWLILACCRLLRSLNQTGVQWAHRPDLGHWLTSSDHKAELSVLAALSLLVVFVLVQRGCSPVSKAALALGLLGVYCYRAAIGSVRFPWRPDSKDISKGIIEARFVYVFVLGILFTGTKDLLKSQVIAADFKLKTVGLWEIYSGLVLLAALLFRPHNLPVLAFSLLIQTLMTKFIWKPLRHDAAEITVMHYWFGQAFFYFQGNSNNIATVDISAGFVGLDTYVEIPAVLLTAFGTYAGPVLWASHLVHFLSSETRSGSALSHACFCYALICSIPVFTYIVLVTSLRYHLFIWSVFSPKLLYEGMHLLITAAVCVFFTAMDQTRLTQS [PIGG] | 0.00219 | 54.1 | 53.8 | -0.239 | 0.623 | -0.407
MERQKRKADIEKGLQFIQSTLPLKQEEYEAFLLKLVQNLFAEGNDLFREKDYKQALVQYMEGLNVADYAASDQVALPRELLCKLHVNRAACYFTMGLYEKALEDSEKALGLDSESIRALFRKARALNELGRHKEAYECSSRCSLALPHDESVTQLGQELAQKLGLRVRKAYKRPQELETFSLLSNGTAAGVADQGTSNGLGSIDDIETDCYVDPRGSPALLPSTPTMPLFPHVLDLLAPLDSSRTLPSTDSLDDFSDGDVFGPELDTLLDSLSLVQGGLSGSGVPSELPQLIPVFPGGTPLLPPVVGGSIPVSSPLPPASFGLVMDPSKKLAASVLDALDPPGPTLDPLDLLPYSETRLDALDSFGSTRGSLDKPDSFMEETNSQDHRPPSGAQKPAPSPEPCMPNTALLIKNPLAATHEFKQACQLCYPKTGPRAGDYTYREGLEHKCKRDILLGRLRSSEDQTWKRIRPRPTKTSFVGSYYLCKDMINKQDCKYGDNCTFAYHQEEIDVWTEERKGTLNRDLLFDPLGGVKRGSLTIAKLLKEHQGIFTFLCEICFDSKPRIISKGTKDSPSVCSNLAAKHSFYNNKCLVHIVRSTSLKYSKIRQFQEHFQFDVCRHEVRYGCLREDSCHFAHSFIELKVWLLQQYSGMTHEDIVQESKKYWQQMEAHAGKASSSMGAPRTHGPSTFDLQMKFVCGQCWRNGQVVEPDKDLKYCSAKARHCWTKERRVLLVMSKAKRKWVSVRPLPSIRNFPQQYDLCIHAQNGRKCQYVGNCSFAHSPEERDMWTFMKENKILDMQQTYDMWLKKHNPGKPGEGTPISSREGEKQIQMPTDYADIMMGYHCWLCGKNSNSKKQWQQHIQSEKHKEKVFTSDSDASGWAFRFPMGEFRLCDRLQKGKACPDGDKCRCAHGQEELNEWLDRREVLKQKLAKARKDMLLCPRDDDFGKYNFLLQEDGDLAGATPEAPAAAATATTGE [ZC3H7B] | 0.118 | 48 | 47.6 | -0.354 | 1.16 | 1.26
KIF13A | -0.102 | 51.9 | 51.4 | -0.0515 | -0.212 | -0.151
BCOR | 0.38 | 47.6 | 50.1 | -0.157 | 0.368 | 1.08
MASGSVAECLQQETTCPVCLQYFAEPMMLDCGHNICCACLARCWGTAETNVSCPQCRETFPQRHMRPNRHLANVTQLVKQLRTERPSGPGGEMGVCEKHREPLKLYCEEDQMPICVVCDRSREHRGHSVLPLEEAVEGFKEQIQNQLDHLKRVKDLKKRRRAQGEQARAELLSLTQMEREKIVWEFEQLYHSLKEHEYRLLARLEELDLAIYNSINGAITQFSCNISHLSSLIAQLEEKQQQPTRELLQDIGDTLSRAERIRIPEPWITPPDLQEKIHIFAQKCLFLTESLKQFTEKMQSDMEKIQELREAQLYSVDVTLDPDTAYPSLILSDNLRQVRYSYLQQDLPDNPERFNLFPCVLGSPCFIAGRHYWEVEVGDKAKWTIGVCEDSVCRKGGVTSAPQNGFWAVSLWYGKEYWALTSPMTALPLRTPLQRVGIFLDYDAGEVSFYNVTERCHTFTFSHATFCGPVRPYFSLSYSGGKSAAPLIICPMSGIDGFSGHVGNHGHSMETSP [TRIM27] | -0.135 | 50.9 | 50.5 | -0.499 | 1.44 | 3.24
MAMAEGERTECAEPPRDEPPADGALKRAEELKTQANDYFKAKDYENAIKFYSQAIELNPSNAIYYGNRSLAYLRTECYGYALGDATRAIELDKKYIKGYYRRAASNMALGKFRAALRDYETVVKVKPHDKDAKMKYQECNKIVKQKAFERAIAGDEHKRSVVDSLDIESMTIEDEYSGPKLEDGKVTISFMKELMQWYKDQKKLHRKCAYQILVQVKEVLSKLSTLVETTLKETEKITVCGDTHGQFYDLLNIFELNGLPSETNPYIFNGDFVDRGSFSVEVILTLFGFKLLYPDHFHLLRGNHETDNMNQIYGFEGEVKAKYTAQMYELFSEVFEWLPLAQCINGKVLIMHGGLFSEDGVTLDDIRKIERNRQPPDSGPMCDLLWSDPQPQNGRSISKRGVSCQFGPDVTKAFLEENNLDYIIRSHEVKAEGYEVAHGGRCVTVFSAPNYCDQMGNKASYIHLQGSDLRPQFHQFTAVPHPNVKPMAYANTLLQLGMM [PPP5C] | -0.207 | 52.2 | 51.6 | 0.0833 | -0.0521 | -1.42
MSDGDYDYLIKFLALGDSGVGKTSVLYQYTDGKFNSKFITTVGIDFREKRVVYRASGPDGATGRGQRIHLQLWDTAGQERFRSLTTAFFRDAMGFLLLFDLTNEQSFLNVRNWISQLQMHAYCENPDIVLCGNKSDLEDQRVVKEEEAIALAEKYGIPYFETSAANGTNISQAIEMLLDLIMKRMERCVDKSWIPEGVVRSNGHASTDQLSEEKEKGACGC [RAB27A] | -0.0891 | 52.7 | 53.9 | 0.222 | 2.41 | 2.1
MEADIITNLRCRLKEAEEERLKAAQYGLQLVESQNELQNQLDKCRNEMMTMTESYEQEKYTLQREVELKSRMLESLSCECEAIKQQQKMHLEKLEEQLSRSHGQEVNELKTKIEKLKVELDEARLSEKQLKHQVDHQKELLSCKSEELRVMSERVQESMSSEMLALQIELTEMESMKTTLKEEVNELQYRQEQLELLITNLMRQVDRLKEEKEEREKEAVSYYNALEKARVANQDLQVQLDQALQQALDPNSKGNSLFAEVEDRRAAMERQLISMKVKYQSLKKQNVFNREQMQRMKLQIATLLQMKGSQTEFEQQERLLAMLEQKNGEIKHLLGEIRNLEKFKNLYDSMESKPSVDSGTLEDNTYYTDLLQMKLDNLNKEIESTKGELSIQRMKALFESQRALDIERKLFANERCLQLSESENMKLRAKLDELKLKYEPEETVEVPVLKKRREVLPVDITTAKDACVNNSALGGEVYRLPPQKEETQSCPNSLEDNNLQLEKSVSIYTPVVSLSPHKNLPVDMQLKKEKKCVKLIGVPADAEALSERSGNTPNSPRLAAESKLQTEVKEGKETSSKLEKETCKKLHPILYVSSKSTPETQCPQQ [SPDL1] | 0.278 | 47.2 | 50.1 | 0.268 | 0.59 | 0.359
MAAPPGEYFSVGSQVSCRTCQEQRLQGEVVAFDYQSKMLALKCPSSSGKPNHADILLINLQYVSEVEIINDRTETPPPLASLNVSKLASKARTEKEEKLSQAYAISAGVSLEGQQLFQTIHKTIKDCKWQEKNIVVMEEVVITPPYQVENCKGKEGSALSHVRKIVEKHFRDVESQKILQRSQAQQPQKEAALSS [LSM12] | 0.105 | 52.3 | 52.3 | -0.264 | -0.688 | -0.784
MERAGATSRGGQAPGFLLRLHTEGRAEAARVQEQDLRQWGLTGIHLRSYQLEGVNWLAQRFHCQNGCILGDEMGLGKTCQTIALFIYLAGRLNDEGPFLILCPLSVLSNWKEEMQRFAPGLSCVTYAGDKEERACLQQDLKQESRFHVLLTTYEICLKDASFLKSFPWSVLVVDEAHRLKNQSSLLHKTLSEFSVVFSLLLTGTPIQNSLQELYSLLSFVEPDLFSKEEVGDFIQRYQDIEKESESASELHKLLQPFLLRRVKAEVATELPKKTEVVIYHGMSALQKKYYKAILMKDLDAFENETAKKVKLQNILSQLRKCVDHPYLFDGVEPEPFEVGDHLTEASGKLHLLDKLLAFLYSGGHRVLLFSQMTQMLDILQDYMDYRGYSYERVDGSVRGEERHLAIKNFGQQPIFVFLLSTRAGGVGMNLTAADTVIFVDSDFNPQNDLQAAARAHRIGQNKSVKVIRLIGRDTVEEIVYRKAASKLQLTNMIIEGGHFTLGAQKPAADADLQLSEILKFGLDKLLASEGSTMDEIDLESILGETKDGQWVSDALPAAEGGSRDQEEGKNHMYLFEGKDYSKEPSKEDRKSFEQLVNLQKTLLEKASQEGRSLRNKGSVLIPGLVEGSTKRKRVLSPEELEDRQKKRQEAAAKRRRLIEEKKRQKEEAEHKKKMAWWESNNYQSFCLPSEESEPEDLENGEESSAELDYQDPDATSLKYVSGDVTHPQAGAEDALIVHCVDDSGHWGRGGLFTALEKRSAEPRKIYELAGKMKDLSLGGVLLFPVDDKESRNKGQDLLALIVAQHRDRSNVLSGIKMAALEEGLKKIFLAAKKKKASVHLPRIGHATKGFNWYGTERLIRKHLAARGIPTYIYYFPRSKSAVLHSQSSSSSSRQLVP [CHD1L] | -0.0342 | 46.9 | 49 | -0.105 | 0.274 | 0.334
